Measured values from US20260116971A1 (published 2026).
Where a chain is given by its changes, count along the chain named.

Assays:
[1] = target: T1, cynomolgus (Cyno) monkey (Macaca fascicularis) Nectin-2 (cynomolgus monkey (Macaca fascicularis), UniProt A0A2K5U084 32-538); assay: FACS binding; CHO cells expressing cyno Nectin-2
T1 chain: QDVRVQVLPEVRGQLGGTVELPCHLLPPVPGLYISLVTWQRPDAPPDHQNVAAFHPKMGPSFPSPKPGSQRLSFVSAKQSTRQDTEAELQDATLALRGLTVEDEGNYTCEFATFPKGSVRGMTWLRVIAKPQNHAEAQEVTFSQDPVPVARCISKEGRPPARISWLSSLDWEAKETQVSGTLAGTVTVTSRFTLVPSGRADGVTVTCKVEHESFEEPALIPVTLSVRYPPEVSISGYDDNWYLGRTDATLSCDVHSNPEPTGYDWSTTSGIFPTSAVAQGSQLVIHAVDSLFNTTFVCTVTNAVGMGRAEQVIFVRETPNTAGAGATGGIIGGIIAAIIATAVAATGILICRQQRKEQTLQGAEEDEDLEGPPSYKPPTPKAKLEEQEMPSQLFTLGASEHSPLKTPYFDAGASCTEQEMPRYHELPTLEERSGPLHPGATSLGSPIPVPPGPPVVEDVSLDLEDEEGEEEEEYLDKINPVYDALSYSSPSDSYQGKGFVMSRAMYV

[2] = target: T2, Chlorocebus (African green monkey) Nectin-2 (Chlorocebus (African green monkey)); assay: FACS binding; Vero cells
T2 chain: T1 chain with D47N, Q70E, R82G, V481I

B1: anti-Nectin-2 monoclonal antibody clone 7 (antibody, V domains shown)
VH: DVNLVESGGGLVKPGGSLKLSCAASGFTFSRFTMSWVRQTPEKTLDWVATISSGGSYTYYPDSVKGRFTISRDNAKNTLYLQMSSLKSEDTAMYYCTRDRDFYGPYYAMDYWGQGTSVTVSS
VL: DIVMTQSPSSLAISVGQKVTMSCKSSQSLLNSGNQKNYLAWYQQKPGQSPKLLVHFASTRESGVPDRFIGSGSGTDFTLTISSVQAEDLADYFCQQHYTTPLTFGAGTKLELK
- EC50 [1]: 0.66 nM
- EC50 [2]: 0.23 nM

B2: anti-Nectin-2 monoclonal antibody clone 11 (antibody, V domains shown)
VH: EVQLQQSGTVLTRPGASVKMSCKASGYIFTSYWIHWVKQRPGQGLEWIGAVYPGNSDSNYNQKFKAKAKLTAVTSTSTAYMELSSLTSEDSAVYYCTKLVGTFDYWGQGTTLTVSS
VL: DIVMTQSQKFMSSSIGDRVSVTCKASQNVGINVVWYQQRAGQSPKTLIYSASYRYSGVPDRFTGSGSGTDFTLTISNVQSEDLAEYFCQQYNTNPFTFGSGTKLEIK
- EC50 [1]: 0.2 nM
- EC50 [2]: 0.16 nM
